Each block holds one molecule with its values, some of them ahead of it.
Legend:
[1] = target: SufA (E. coli) (UniProt P77667); assay: SPR
[2] = target: T1, SufB (E. coli, UniProt P77522 1-495); assay: cross-linking
T1 sequence (looked up): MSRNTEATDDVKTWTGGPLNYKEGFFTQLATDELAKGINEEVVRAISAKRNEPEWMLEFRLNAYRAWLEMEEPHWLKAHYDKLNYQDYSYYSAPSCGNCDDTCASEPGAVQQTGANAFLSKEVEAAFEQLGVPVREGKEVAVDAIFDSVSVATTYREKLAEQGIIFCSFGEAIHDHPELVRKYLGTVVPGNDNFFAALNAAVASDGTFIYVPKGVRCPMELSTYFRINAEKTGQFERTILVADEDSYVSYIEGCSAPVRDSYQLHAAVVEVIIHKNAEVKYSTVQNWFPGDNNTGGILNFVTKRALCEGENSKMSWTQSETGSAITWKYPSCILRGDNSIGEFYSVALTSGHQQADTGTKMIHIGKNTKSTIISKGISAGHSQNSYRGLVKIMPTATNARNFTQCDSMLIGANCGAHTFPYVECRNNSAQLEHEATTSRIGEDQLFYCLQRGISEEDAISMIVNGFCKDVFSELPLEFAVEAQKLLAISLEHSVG

[3] = target: T2, SufC (E. coli, UniProt P77499 1-248); assay: cross-linking
T2 sequence (looked up): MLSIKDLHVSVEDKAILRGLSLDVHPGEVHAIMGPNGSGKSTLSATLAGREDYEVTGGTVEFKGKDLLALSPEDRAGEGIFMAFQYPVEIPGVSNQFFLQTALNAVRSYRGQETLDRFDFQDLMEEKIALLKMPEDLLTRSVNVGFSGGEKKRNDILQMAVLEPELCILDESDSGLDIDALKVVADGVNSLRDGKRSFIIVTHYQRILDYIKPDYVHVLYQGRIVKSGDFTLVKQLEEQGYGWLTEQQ

[4] = target: the molecule itself; assay: SEC
[5] = target: T3, (His)6-SufS (E. coli, UniProt P77444 1-406); assay: SPR
T3 sequence (looked up): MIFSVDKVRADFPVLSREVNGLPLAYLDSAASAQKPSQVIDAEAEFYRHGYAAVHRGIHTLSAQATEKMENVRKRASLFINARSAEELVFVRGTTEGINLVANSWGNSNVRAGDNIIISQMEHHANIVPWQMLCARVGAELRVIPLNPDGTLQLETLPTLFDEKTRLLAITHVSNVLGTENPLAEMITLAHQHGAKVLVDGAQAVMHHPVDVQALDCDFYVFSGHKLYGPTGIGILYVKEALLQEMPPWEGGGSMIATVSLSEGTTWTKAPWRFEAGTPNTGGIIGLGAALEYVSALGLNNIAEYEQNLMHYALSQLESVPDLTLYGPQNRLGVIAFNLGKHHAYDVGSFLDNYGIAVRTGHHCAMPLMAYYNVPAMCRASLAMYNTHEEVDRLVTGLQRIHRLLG

Kd [1]: 1400 nM
Molecule: (His)6-SufS (from UniProt P77444 1-406) (enzyme)

binding result [2]: binds
binding result [3]: binds
B1: SufA pre-labeled with Mts-Atf-Biotin (natural protein, E. coli, UniProt P77667 1-122, looked up)
chain: MDMHSGTFNPQDFAWQGLTLTPAAAIHIRELVAKQPGMVGVRLGVKQTGCAGFGYVLDSVSEPDKDDLLFEHDGAKLFVPLQAMPFIDGTEVDFVREGLNQIFKFHNPKAQNECGCGESFGV
modifications: Mts-Atf-biotin on cysteine residues (reducible disulfide bonds)

B2: SufA (natural protein, E. coli, UniProt P77667 1-122, looked up)
chain: B1 chain
stoichiometry N [4]: 2

Kd [5]: 1.1 nM
B3: SufE (natural protein, E. coli, UniProt P76194 1-138, looked up)
chain: MALLPDKEKLLRNFLRCANWEEKYLYIIELGQRLPELRDEDRSPQNSIQGCQSQVWIVMRQNAQGIIELQGDSDAAIVKGLIAVVFILYDQMTPQDIVNFDVRPWFEKMALTQHLTPSRSQGLEAMIRAIRAKAAALS

From article PMC2783425 (Biochemistry, 2009)
